Results from article PMC9482650, “Quantitative fragmentomics allow affinity mapping of interactomes” (Nature Communications, 2022).

Experiments:
Assay in all cases: holdup assay
Design in all cases: key: below the threshold = too weak to quantify, mostly under pKd 3.1 to 4
[1] = target: T1, APBA2_1, Q99767
T1 sequence (Q99767 563-664, limits assumed, looked up): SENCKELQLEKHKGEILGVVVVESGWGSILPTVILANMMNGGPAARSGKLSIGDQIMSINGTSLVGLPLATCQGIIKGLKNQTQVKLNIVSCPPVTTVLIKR

[2] = target: T2, ARHGEF11, O15085
T2 sequence (O15085 42-136, limits assumed, looked up): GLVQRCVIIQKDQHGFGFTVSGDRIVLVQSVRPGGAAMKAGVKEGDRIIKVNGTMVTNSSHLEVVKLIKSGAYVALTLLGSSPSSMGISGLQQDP

[3] = target: ARHGEF12, Q9NZN5-2
Chain of ARHGEF12, Q9NZN5-2 (Q9NZN5 other isoform, or with tags, fused parts or gaps): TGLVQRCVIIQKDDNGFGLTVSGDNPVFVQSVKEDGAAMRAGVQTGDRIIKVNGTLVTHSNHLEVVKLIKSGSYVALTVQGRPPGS

[4] = target: CASK, O14936
Chain of CASK, O14936 (O14936 487-570): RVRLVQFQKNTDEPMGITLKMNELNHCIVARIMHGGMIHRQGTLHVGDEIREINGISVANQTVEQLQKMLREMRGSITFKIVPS

[5] = target: DLG2_2, Q15700
[6] = target: DLG2_3, Q15700
[7] = target: GRID2IP_1, A4D2P6
Chain of GRID2IP_1, A4D2P6 (A4D2P6 1-87): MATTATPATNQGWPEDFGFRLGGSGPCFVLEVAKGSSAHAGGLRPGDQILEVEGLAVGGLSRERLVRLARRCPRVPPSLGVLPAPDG

[8] = target: T3, GRIP1_2, Q9Y3R0
T3 sequence (Q9Y3R0 145-248, limits assumed, looked up): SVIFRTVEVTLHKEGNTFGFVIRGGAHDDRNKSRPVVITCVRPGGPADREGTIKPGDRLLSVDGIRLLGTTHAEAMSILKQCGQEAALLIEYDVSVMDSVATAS

[9] = target: T4, GRIP1_3, Q9Y3R0
T4 sequence (Q9Y3R0 247-346, limits assumed, looked up): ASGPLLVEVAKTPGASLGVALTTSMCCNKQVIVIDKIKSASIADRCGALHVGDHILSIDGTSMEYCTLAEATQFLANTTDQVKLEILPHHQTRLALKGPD

[10] = target: GRIP2_6, Q9C0E4
Chain of GRIP2_6, Q9C0E4 (Q9C0E4 648-740): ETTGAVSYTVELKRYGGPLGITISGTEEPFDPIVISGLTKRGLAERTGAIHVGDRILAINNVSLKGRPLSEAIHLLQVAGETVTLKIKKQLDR

[11] = target: HTRA1, Q92743
Chain of HTRA1, Q92743 (Q92743 360-477): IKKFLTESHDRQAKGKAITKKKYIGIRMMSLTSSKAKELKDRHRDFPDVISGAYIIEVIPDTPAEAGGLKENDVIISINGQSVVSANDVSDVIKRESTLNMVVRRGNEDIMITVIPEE

[12] = target: IL16_4, Q14005
Chain of IL16_4, Q14005 (Q14005 1229-1329): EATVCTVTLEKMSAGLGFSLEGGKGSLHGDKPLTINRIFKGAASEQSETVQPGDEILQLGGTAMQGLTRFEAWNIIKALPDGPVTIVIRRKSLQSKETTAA

[13] = target: Inadl_10, Q8NI35
Chain of Inadl_10, Q8NI35 (Q8NI35 1673-1763): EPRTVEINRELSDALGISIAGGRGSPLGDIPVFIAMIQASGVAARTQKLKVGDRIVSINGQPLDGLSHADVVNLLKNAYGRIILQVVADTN

[14] = target: Inadl_2, Q8NI35
Chain of Inadl_2, Q8NI35 (Q8NI35 238-335): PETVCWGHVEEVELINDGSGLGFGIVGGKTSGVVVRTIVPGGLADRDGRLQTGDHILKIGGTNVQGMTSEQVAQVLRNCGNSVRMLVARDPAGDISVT

[15] = target: T5, LIN7C, Q9NUP9
T5 sequence (Q9NUP9 88-185, limits assumed, looked up): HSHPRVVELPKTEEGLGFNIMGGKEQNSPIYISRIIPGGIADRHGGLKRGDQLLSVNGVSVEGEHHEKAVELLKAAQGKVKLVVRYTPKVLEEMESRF

[16] = target: LNX1_2, Q8TBB1
Chain of LNX1_2, Q8TBB1 (Q8TBB1 371-470): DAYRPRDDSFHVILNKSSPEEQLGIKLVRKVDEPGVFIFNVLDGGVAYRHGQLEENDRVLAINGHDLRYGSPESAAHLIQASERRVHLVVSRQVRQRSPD

[17] = target: MAGI1_1, Q96QZ7
Chain of MAGI1_1, Q96QZ7 (Q96QZ7 1-106): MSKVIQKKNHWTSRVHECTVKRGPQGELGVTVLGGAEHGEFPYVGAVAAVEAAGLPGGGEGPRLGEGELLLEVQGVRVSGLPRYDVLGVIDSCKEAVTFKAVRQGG

[18] = target: T6, NHERF3_1, Q5T2W1
T6 sequence (Q5T2W1 4-100, limits assumed, looked up): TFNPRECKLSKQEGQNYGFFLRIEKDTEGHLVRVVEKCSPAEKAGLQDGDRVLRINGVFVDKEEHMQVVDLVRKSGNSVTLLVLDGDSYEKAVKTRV

[19] = target: T7, NHERF3_3, Q5T2W1
T7 sequence (Q5T2W1 238-333, limits assumed, looked up): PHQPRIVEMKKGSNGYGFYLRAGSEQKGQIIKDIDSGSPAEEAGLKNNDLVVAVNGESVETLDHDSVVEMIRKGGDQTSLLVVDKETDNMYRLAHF

[20] = target: PDZRN4_1, Q6ZMN7
Chain of PDZRN4_1, Q6ZMN7 (Q6ZMN7 213-318): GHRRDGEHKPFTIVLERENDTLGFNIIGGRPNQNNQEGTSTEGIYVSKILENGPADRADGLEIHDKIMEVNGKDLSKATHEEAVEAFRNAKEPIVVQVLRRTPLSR

[21] = target: T8, RADIL, Q96JH8
T8 sequence (Q96JH8 971-1071, limits assumed, looked up): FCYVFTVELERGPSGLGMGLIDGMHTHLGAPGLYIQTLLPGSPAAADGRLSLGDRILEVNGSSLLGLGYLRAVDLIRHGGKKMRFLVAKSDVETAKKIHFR

[22] = target: T9, RHPN1, Q8TCX5
T9 sequence (Q8TCX5 508-602, limits assumed, looked up): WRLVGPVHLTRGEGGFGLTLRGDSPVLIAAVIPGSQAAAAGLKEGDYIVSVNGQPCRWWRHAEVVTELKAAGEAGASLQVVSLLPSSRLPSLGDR

[23] = target: T10, SNTG1, Q9NSN8
T10 sequence (Q9NSN8 52-150, limits assumed, looked up): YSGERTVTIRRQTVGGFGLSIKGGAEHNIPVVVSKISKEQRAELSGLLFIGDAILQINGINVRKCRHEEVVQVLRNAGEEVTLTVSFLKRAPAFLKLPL

[24] = target: T11, SYNJ2BP, P57105
T11 sequence (P57105 8-110, limits assumed, looked up): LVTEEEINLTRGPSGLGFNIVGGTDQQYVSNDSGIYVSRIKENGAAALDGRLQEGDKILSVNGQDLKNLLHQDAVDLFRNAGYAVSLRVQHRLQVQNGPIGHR

[25] = target: TJP1_2, Q07157
Chain of TJP1_2, Q07157 (Q07157 181-274): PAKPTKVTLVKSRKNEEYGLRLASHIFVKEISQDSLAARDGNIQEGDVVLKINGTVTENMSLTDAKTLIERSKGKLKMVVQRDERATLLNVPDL

[26] = target: T12, TJP3_3, O95049
T12 sequence (O95049 375-456, limits assumed, looked up): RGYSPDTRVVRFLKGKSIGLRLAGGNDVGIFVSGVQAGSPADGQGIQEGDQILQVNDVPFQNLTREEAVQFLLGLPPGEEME

[27] = plain residues with an end cap or a label only (N-terminal biotin on a linker: ado-ado)
[28] = modified: phospho on T at position -1 from the C-terminal residue
[29] = modified: phospho on T at position -2 from the C-terminal residue

B1: CTNNA2, P26232 (peptide)
chain: LSEFKAMDSF
[1]; [27]
  pKd: below the threshold
[2]; [27]
  pKd: below the threshold
[3]; [27]
  pKd: below the threshold
[4]; [27]
  pKd: below the threshold
[5]; [27]
  pKd: below the threshold
[6]; [27]
  pKd: 3.72
[7]; [27]
  pKd: below the threshold
[8]; [27]
  pKd: below the threshold
[9]; [27]
  pKd: below the threshold
[10]; [27]
  pKd: below the threshold
[11]; [27]
  pKd: below the threshold
[12]; [27]
  pKd: below the threshold
[13]; [27]
  pKd: below the threshold
[14]; [27]
  pKd: below the threshold
[15]; [27]
  pKd: below the threshold
[16]; [27]
  pKd: below the threshold
[17]; [27]
  pKd: below the threshold
[18]; [27]
  pKd: below the threshold
[19]; [27]
  pKd: below the threshold
[20]; [27]
  pKd: below the threshold
[21]; [27]
  pKd: below the threshold
[22]; [27]
  pKd: below the threshold
[23]; [27]
  pKd: below the threshold
[24]; [27]
  pKd: below the threshold
[25]; [27]
  pKd: below the threshold
[26]; [27]
  pKd: below the threshold

B2: CACNG4, Q9UBN1 (peptide)
chain: SMLNRRTTPV
[1]; [27]
  pKd: below the threshold
[2]; [27]
  pKd: 3.89
[3]; [27]
  pKd: 3.86
[4]; [27]
  pKd: below the threshold
[5]; [27]
  pKd: 4.51
[6]; [27]
  pKd: 4.89
[7]; [27]
  pKd: below the threshold
[8]; [27]
  pKd: below the threshold
[9]; [27]
  pKd: below the threshold
[10]; [27]
  pKd: below the threshold
[11]; [27]
  pKd: 4.36
[12]; [27]
  pKd: below the threshold
[13]; [27]
  pKd: below the threshold
[14]; [27]
  pKd: below the threshold
[15]; [27]
  pKd: below the threshold
[16]; [27]
  pKd: 3.75
[17]; [27]
  pKd: below the threshold
[18]; [27]
  pKd: below the threshold
[19]; [27]
  pKd: below the threshold
[20]; [27]
  pKd: 3.75
[21]; [27]
  pKd: below the threshold
[22]; [27]
  pKd: below the threshold
[23]; [27]
  pKd: below the threshold
[24]; [27]
  pKd: 5.12
[25]; [27]
  pKd: below the threshold
[26]; [27]
  pKd: below the threshold

B3: RPS6KA1_-1P, Q15418 (peptide)
chain: RRVRKLPSTTL
[1]; [28]
  pKd: below the threshold
[2]; [28]
  pKd: 4.29
[3]; [28]
  pKd: 4.87
[4]; [28]
  pKd: below the threshold
[5]; [28]
  pKd: 3.83
[6]; [28]
  pKd: 3.74
[7]; [28]
  pKd: below the threshold
[8]; [28]
  pKd: below the threshold
[9]; [28]
  pKd: 3.34
[10]; [28]
  pKd: below the threshold
[11]; [28]
  pKd: 4.7
[12]; [28]
  pKd: below the threshold
[13]; [28]
  pKd: 3.54
[14]; [28]
  pKd: 3.45
[15]; [28]
  pKd: 3.56
[16]; [28]
  pKd: below the threshold
[17]; [28]
  pKd: 3.33
[18]; [28]
  pKd: 4.2
[19]; [28]
  pKd: 3.36
[20]; [28]
  pKd: 4.31
[21]; [28]
  pKd: 3.52
[22]; [28]
  pKd: 3.62
[23]; [28]
  pKd: 3.73
[24]; [28]
  pKd: 4.48
[25]; [28]
  pKd: below the threshold
[26]; [28]
  pKd: below the threshold

B4: RPS6KA1_-2P, Q15418 (peptide)
chain: RRVRKLPSTTL
[1]; [29]
  pKd: below the threshold
[2]; [29]
  pKd: below the threshold
[3]; [29]
  pKd: below the threshold
[4]; [29]
  pKd: below the threshold
[5]; [29]
  pKd: below the threshold
[6]; [29]
  pKd: below the threshold
[7]; [29]
  pKd: below the threshold
[8]; [29]
  pKd: 3.52
[9]; [29]
  pKd: below the threshold
[10]; [29]
  pKd: below the threshold
[11]; [29]
  pKd: 3.65
[12]; [29]
  pKd: below the threshold
[13]; [29]
  pKd: below the threshold
[14]; [29]
  pKd: below the threshold
[15]; [29]
  pKd: below the threshold
[16]; [29]
  pKd: below the threshold
[17]; [29]
  pKd: below the threshold
[18]; [29]
  pKd: below the threshold
[19]; [29]
  pKd: below the threshold
[20]; [29]
  pKd: below the threshold
[21]; [29]
  pKd: below the threshold
[22]; [29]
  pKd: below the threshold
[23]; [29]
  pKd: below the threshold
[24]; [29]
  pKd: below the threshold
[25]; [29]
  pKd: below the threshold
[26]; [29]
  pKd: below the threshold
